The data set addresses EGFR antigen (epidermal growth factor receptor) (UniProt P00533 25-645). Put plainly: electrochemical aptasensor (CV/DPV); aptamer on NH2-GO/THI/AuNP paper electrode; linear range 0.05-200 ng/mL, LOD 5 pg/mL (not a Kd); Aptamer on NH2-GO/THI/AuNP electrode, mercaptoethanol block, wash in TE (10 mM Tris-HCl, 1 mM EDTA; TE stock pH 8.0); binding buffer and temperature not given in the material. The settings on record: protein: commercial.

B1: anti-EGFR aptamer (ssDNA)
DNA: TACCAGTGCGATGCTCAGTGCCGTTTCTTCTCTTTCGCTTTTTTTGCTTTTGAGCATGCTGACGCATTCGGTTGAC
modifications: 5'-thiol
For B1, the binding result is listed as “binds”.

For the origin of these results see paper PMC8433370, “Low sample volume origami-paper-based graphene-modified aptasensors for label-free electrochemical detection of cancer biomarker-EGFR”.
